# Data: PMC3245798
# Target: soluble H ectodomain (sH, amino acids 60-617) of measles virus (measles virus) (UniProt P08362)
# Test: SPR
# Chain of UniProt P08362 (P08362 60-617 limits assumed): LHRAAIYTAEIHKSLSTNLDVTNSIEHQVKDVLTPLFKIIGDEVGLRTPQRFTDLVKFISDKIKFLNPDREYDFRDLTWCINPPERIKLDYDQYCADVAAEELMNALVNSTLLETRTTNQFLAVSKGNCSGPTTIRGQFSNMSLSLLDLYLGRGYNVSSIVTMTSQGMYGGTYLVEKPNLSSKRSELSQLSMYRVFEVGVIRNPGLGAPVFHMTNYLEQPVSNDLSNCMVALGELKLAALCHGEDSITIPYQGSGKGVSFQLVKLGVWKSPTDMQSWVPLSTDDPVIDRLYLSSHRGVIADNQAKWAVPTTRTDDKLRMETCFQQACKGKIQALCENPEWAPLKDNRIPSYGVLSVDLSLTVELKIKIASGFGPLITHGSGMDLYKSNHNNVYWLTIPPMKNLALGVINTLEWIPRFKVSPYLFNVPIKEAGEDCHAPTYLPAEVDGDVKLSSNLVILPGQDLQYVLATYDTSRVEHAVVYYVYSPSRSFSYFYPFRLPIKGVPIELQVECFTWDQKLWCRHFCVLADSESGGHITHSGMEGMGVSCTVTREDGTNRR
substance,measurement,value
soluble nectin-4 ectodomain fused to human IgG1 Fc domain (N4VCC-Fc) (from UniProt Q96NY8 32-349) (Fc fusion),kon relative to that of SLAM and H,5 fold
